# Laboratory results: PMC10256740
# B1: EGFP-Tis11d (natural protein)
# chain: MSTTLLSPFYDIDFLCKTEKSLANLNLNNMLDKKAVGTPVAAAPSSSFTPGFLRRHSASNLHALAHPVPSPGSCSPKFPGAPNGGGSSCGPAGGGGLASYGQLKEPSGGSGTALVTKESKFRDRSFSENGERSQHLLHLQQQQKGGSGSQINSTRYKTELCRPFEESGTCKYGEKCQFAHGFHELRSLTRHPKYKTELCRTFHTIGFCPYGPRCHFIHNADERRPAPSGGGGASGDLRAFGARDALHLGFAREPRPKLHHSLSFSGFPSGHHQPPGGLESPLLLDSPTSRTPPPPSSSASSCSSSASSCSSASAASTPSGAPTCCATAAAAALLYGPGGAEDLLSPGAPCASCSSSGANNAFAFGPELSSLITPLAIQTHNFAAAAAAAYYRNQQQGLTGPAPPPAQPPAAPAPPSPPFGFQLPRRLSESPVFDAPPSPPDSLSDRDSYLSGSLSSGSLSGSESPSLDPGRRLPIFSRLSISDD
# Columns and labels:
# [1] = target: FLAG-tagged BicD2-Kif1bα tail fusion (mouse) (UniProt Q60575); test: centrosome recruitment assay with BicD2-kinesin tail fusions (relocalisation in cells, microscopy); N2A cells transfected with FLAG-BicD2-KIF tail fusion and EGFP-tagged RBP (2:3), fixed after 24 h, anti-FLAG staining; read-out log2 of the mean EGFP intensity at the centrosome over the mean intensity in the whole cell
# Sequence of FLAG-tagged BicD2-Kif1bα tail fusion (mouse) (Q60575 other isoform, or with tags, fused parts or gaps): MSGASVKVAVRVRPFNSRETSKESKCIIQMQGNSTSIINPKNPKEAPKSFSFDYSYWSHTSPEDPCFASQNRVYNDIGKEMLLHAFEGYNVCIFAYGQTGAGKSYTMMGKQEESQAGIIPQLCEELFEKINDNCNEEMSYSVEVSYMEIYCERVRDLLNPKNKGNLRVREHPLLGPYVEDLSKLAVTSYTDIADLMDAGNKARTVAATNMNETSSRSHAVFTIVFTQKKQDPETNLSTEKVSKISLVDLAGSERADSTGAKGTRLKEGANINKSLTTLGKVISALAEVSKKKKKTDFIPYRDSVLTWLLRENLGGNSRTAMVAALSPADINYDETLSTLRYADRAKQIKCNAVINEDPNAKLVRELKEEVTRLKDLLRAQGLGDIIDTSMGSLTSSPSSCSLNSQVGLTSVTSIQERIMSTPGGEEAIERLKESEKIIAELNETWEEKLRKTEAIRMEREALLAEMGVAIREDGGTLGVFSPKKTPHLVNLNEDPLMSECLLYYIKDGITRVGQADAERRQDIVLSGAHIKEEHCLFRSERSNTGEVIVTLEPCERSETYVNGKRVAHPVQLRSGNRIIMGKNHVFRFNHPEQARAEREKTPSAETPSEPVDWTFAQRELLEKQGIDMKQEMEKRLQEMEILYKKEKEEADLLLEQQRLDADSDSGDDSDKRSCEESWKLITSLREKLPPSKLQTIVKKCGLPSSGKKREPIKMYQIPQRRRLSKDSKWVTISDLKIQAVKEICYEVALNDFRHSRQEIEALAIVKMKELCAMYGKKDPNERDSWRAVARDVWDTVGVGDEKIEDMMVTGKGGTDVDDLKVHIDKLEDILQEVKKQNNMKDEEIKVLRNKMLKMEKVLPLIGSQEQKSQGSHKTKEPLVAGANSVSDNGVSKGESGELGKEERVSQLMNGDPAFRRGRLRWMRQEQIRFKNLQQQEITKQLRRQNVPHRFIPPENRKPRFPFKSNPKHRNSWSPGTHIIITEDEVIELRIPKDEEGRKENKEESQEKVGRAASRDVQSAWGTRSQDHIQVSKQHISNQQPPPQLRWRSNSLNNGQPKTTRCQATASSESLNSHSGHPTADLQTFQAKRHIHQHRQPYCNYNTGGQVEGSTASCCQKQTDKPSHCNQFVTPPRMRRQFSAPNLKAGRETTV
# [2] = target: FLAG-tagged BicD2-Kif1c tail fusion (mouse) (UniProt O35071); test: as above
# Sequence of FLAG-tagged BicD2-Kif1c tail fusion (mouse) (O35071 whole entry, the tested form may be a part): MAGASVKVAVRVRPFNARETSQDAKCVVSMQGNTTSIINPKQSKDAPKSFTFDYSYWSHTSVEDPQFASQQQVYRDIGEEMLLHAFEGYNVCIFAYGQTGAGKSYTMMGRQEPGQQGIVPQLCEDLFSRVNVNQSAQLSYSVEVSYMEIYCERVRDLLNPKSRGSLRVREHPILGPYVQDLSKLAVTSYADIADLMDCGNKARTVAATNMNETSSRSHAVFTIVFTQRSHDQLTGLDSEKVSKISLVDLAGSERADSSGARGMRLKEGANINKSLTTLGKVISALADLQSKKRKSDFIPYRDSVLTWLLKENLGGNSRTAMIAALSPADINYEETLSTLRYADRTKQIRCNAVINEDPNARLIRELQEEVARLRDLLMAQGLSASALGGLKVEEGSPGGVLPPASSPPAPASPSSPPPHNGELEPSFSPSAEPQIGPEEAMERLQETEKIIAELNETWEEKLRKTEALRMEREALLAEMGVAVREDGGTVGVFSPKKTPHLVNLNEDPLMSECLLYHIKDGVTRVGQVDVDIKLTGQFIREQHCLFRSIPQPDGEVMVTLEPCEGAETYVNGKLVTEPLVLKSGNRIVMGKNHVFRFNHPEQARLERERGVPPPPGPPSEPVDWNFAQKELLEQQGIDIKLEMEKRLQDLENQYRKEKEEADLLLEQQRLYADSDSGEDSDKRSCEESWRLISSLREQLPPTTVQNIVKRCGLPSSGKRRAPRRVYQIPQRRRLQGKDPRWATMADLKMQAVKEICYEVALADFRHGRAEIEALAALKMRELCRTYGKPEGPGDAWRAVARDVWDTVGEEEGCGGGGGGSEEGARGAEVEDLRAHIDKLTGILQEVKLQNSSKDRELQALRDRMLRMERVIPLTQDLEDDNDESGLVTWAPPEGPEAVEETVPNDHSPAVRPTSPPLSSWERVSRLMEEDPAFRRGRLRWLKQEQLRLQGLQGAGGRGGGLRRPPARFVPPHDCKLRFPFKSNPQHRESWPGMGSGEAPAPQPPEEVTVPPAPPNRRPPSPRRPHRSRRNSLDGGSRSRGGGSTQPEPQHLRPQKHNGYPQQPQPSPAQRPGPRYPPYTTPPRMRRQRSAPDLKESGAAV
binder,measurement,setting,value
B1,log2 mean centrosome recruitment,[1],1.24 log2
same,log2 mean centrosome recruitment,[2],1.13 log2
